Publication PMC11963481, “The Vacuolar Inositol Transporter BvINT1;1 Contributes to Raffinose Biosynthesis and Reactive Oxygen Species Scavenging During Cold Stress in Sugar Beet” (Plant, Cell & Environment, 2025)

Tested on: T1, O[C@H]1[C@H](O)[C@@H](O)[C@H](O)[C@@H](O)[C@H]1O
T1 construct: full-length CDS with C-terminal dileucine motif mutated (LL489/490AA) for plasma membrane targeting; cRNA-injected Xenopus laevis oocytes
Assay: two-electrode voltage clamp, inward currents in Xenopus oocytes, Michaelis-Menten fit
Assay type: cell-based, Beta vulgaris
Conditions: pH 5.5, room temperature, holding potential -20 mV, 96 mM NaCl bath, inositol/H+ symport, n = 7 oocytes

Q: “BvINT1;1 LL489/490AA (INT1;1^PM, BvINT1;1^PM) (Beta vulgaris subsp. vulgaris; L489A/L490A)” was tested. Which Km did it give?
A: 2.3 ± 0.3 mM
